The results in this text go back to US20250092119A1.

This assay has as its target human neutrophil elastase (human) (UniProt P08246). Description: cell-based or functional assay. Conditions: scale: moles of AAT polypeptide per mole of protease.
Sequence of UniProt P08246 (P08246 30-247 limits assumed): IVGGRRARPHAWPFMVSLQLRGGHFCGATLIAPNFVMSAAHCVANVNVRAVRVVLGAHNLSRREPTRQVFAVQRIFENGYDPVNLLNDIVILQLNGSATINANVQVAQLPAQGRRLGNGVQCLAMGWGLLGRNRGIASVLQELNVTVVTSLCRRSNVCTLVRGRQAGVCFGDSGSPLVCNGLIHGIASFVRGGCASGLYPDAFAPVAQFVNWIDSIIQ

As for “Breach graft (wtAAT carrying S276K, T278E, T323E, D325N, K327E) (from UniProt P01009 41-418)”, the SI against HNE (n = 3) worked out at 1.09. Consider “F35 graft (wtAAT carrying L275F, I324V, M358I) (from UniProt P01009 41-418)”, for which the SI against HNE (n = 3) was determined as 1.11. In the case of “Helix-F graft (wtAAT carrying G99A, Y144W, Y171A) (from UniProt P01009 41-418)”, the SI against HNE (n = 3) came out at 1.35.
